T1: murine HER2 (murine, UniProt P70424 23-1256)
T1 chain: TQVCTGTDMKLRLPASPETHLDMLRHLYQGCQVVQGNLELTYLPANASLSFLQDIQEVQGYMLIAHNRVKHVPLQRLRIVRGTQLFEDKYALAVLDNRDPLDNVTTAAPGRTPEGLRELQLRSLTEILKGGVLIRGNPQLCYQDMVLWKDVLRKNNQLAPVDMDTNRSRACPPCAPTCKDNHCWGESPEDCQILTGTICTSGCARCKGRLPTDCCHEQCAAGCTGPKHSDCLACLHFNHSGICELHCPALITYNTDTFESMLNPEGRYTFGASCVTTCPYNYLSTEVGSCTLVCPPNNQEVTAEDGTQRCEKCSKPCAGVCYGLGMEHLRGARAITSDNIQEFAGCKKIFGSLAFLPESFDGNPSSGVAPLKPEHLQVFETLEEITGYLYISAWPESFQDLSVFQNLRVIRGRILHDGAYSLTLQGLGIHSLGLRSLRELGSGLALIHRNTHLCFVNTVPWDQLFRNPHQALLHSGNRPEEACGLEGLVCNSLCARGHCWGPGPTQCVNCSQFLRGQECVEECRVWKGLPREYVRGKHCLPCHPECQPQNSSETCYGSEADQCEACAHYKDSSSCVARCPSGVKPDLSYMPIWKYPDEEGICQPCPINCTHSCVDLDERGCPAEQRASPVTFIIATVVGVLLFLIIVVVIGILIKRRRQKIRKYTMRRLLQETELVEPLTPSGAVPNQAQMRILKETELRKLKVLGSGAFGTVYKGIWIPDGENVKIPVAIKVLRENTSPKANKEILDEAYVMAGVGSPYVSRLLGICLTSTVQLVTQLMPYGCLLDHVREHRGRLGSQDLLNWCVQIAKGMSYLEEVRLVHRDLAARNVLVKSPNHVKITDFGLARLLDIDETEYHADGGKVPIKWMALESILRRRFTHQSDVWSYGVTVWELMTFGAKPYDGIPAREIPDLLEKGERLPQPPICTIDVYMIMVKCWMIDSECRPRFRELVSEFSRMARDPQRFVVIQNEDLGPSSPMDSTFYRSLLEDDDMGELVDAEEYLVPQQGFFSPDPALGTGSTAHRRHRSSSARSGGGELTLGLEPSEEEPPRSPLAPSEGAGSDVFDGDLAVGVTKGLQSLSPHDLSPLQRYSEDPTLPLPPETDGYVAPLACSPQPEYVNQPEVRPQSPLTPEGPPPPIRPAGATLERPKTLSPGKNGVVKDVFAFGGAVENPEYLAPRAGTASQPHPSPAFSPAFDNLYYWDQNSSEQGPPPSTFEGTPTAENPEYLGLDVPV

B1: VHH_1028 (VHH)
VHH: EVQLVESGGGLVQAGGSLRLSCAASGITFSINTMGWYRQAPGKQRELVALISSIGDTYYADSVRGRFTISRDNAKNTVYLQMNSLKPEDTAVYYCKRFRTAAQGTDYWGQGTQVTVSS
B2: iso-SGMIB-VHH_1028 (VHH)
VHH: B1 VHH
modifications: one iso-SGMIB (non-radioactive) conjugated, mono-substituted; site not stated

Columns and labels:
HER2-Fc protein [1] = target: T2, HER2-Fc protein (human, UniProt P04626 23-652); experiment: ELISA
murine HER2 = target: T1, murine HER2; experiment: ELISA
HER2-Fc protein [2] = target: T2, HER2-Fc protein; experiment: SPR
Human HER4-Fc = experiment: ELISA
Human EGFR-Fc = experiment: ELISA
Cynomolgus HER2-Fc = experiment: ELISA
Canine HER2-Fc = experiment: ELISA
Human HER3-Fc = experiment: ELISA
Human IgG Fc = experiment: ELISA
Rhesus HER2-Fc = experiment: ELISA
Rat HER2-Fc = experiment: ELISA
Human HER2-His6 = experiment: ELISA

Row | Binder | EC50 (HER2-Fc protein [1]) | EC50 (murine HER2) | koff (HER2-Fc protein [2]) | EC50 (Human HER4-Fc) | EC50 (Human EGFR-Fc) | EC50 (Cynomolgus HER2-Fc) | EC50 (Canine HER2-Fc) | EC50 (Human HER3-Fc) | EC50 (Human IgG Fc) | EC50 (Rhesus HER2-Fc) | EC50 (Rat HER2-Fc) | EC50 (Human HER2-His6)
1 | B1 | 0.77 nM | > 10000 nM | 0.000718 s⁻¹ | > 10000 nM | > 10000 nM | 1.19 nM | 1.09 nM | > 10000 nM | > 10000 nM | 1.18 nM | > 10000 nM | 0.69 nM
2 | B2 |  |  | 0.00071 s⁻¹ |  |  |  |  |  |  |  |  | 

— article PMC8864007 (2022)
